This sample holds only a part of the variants without activity. Bounds are passed on as bounds.

To fix the notation:
B1: TPR 5TU (parent)
chain: GGAUCUUCUCGAUCUAACAAAAAAGACAAAUCUGCCACAAAGCUUGAGAGCAUCUUCGGAUGCAGAGGCGGCAGCCUUCGGUGGCGCGAUAGCGCCAACGUUCUCAACUAUGACACGCAAAACGCGUGCUCCGUUGAAUGGAGUUUAUCAUG

The data set covers variants of B1. In words: polymerase ribozyme fitness, log enrichment relative to wild type (log ratio); higher = more active; in vitro selection for triplet polymerase activity. In a few lines: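 Mutant libraries of both subunits of a heterodimeric triplet polymerase ribozyme were PCR-built, transcribed, and selected once in triplicate, with frozen incubation at −7 °C and capture of gel-excised extended constructs on streptavidin beads before RT-PCR. Illumina sequencing of input and output libraries was filtered to genotypes with ≥10 input reads and ≥1 read per output. Fitness is the logarithm of genotype enrichment over wild-type enrichment, using inverse-variance-weighted replicate averages. The logarithm is base 2.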
Consider GGAUCUUCUCGAUCUAACAAAAAAGACAAAUCUGCCACAAAGCUUGAGAGCAUCUUCGGAUGCAGAGGCUGCAGCCUUCGGUGGCGCGAUAGCGCCAACGUUCUCAACUAUGACACGCAAAACGCGUGCUUCGUUGGAUGGAGUUUAUCAUG [G70U C131U A137G], for which the “polymerase ribozyme fitness (log ratio)” value is -4.05.
Next, GGAUCUUCUCGAUCUAACAAAUAAGACAAAUCUGCCACAAAGCUUGAGAUCAUCUUCGGAUGCAGAGGCGGCAGCCUUCGGUGGCGCGAUAGCGCCAACGUUCUCAACUAUGACACGCAAAACGCGUGCUCCGUUGAAUGGAGUUUAUCAUG [A22U G50U]: 1.37; GGAUCUUCUCGAUCUAACAAAAAAGACAAAUCUGCCACAAAGCUUGAGAGCAUCUUCGGAUGCAGAGGCGGCAGCCUUCGGUGGCGCGAUAGCGCGAACGUUCUCAACUAUGACACGCAAAACGCGUGCCCCGUUGAAUGGAGUUUAUCAUG [C96G U130C]: 0.873; GGAUCUUCUCGAUCUAACAAAAAAGACAAAGCUGCCACAAAGCUUGAGAGCAUGUUCGGAUGCAGAGGCGGCAGCCUUCGGUGGCGCGAUAGCGCCAACGUUCUCAACUAUGACACGCAAAACGCGUGCUCCGUUGAAUGGAGUUUAUCAUG [U31G C54G]: -1.02.
For GGAUCUUCUCGAGCAAACAAAAAAGACAAAUCUGCCACAAAGCUUGAGAGUAUCUUCGGAUGCAGAGGCGGCAGCCUUCGGUGGCGCGAUAGCGCAAACGUUCUCAACUAUGACACGCAAGACGCGUGCUCCGUUGAAUGGAGUUUAUCAUG [U13G U15A C51U C96A A121G] the value was -2.76.
For GGAUGUUCUCGAUCUAACAAAAAAGACAAAUCUGCCACAAAGCUUGAGAGCAUCUUCGGAUGCAGAGGCGGCAGCCUUCGGUGGCGCGAUAGCGCCAAAGUUCUCAACUAUGACACGCAAAACGCGUGCUCCGUUGAAUGGAGUUUAUCAUG [C5G C99A] the value was -0.989; for GGAUCUUCUCGAUCUAACAAAAAAGACAAAUCUGCCACAAAGCUUGAGAGCAUCUUCGGAUGCAGAGGCGGCAGCCUUCGGUGGCGCGAUAGAGCCAACGUUCUCAACUAUGACACGCAAAACGCGUGCUCCGUUGUAUGGAGUUUAUCAUG [C93A A137U], not above -4.2.
Consider GGAUCUUCUCGAUCUAACUAAAAAGACAAAUCUGCCACAAAGCUUGAGAGCAUCUUCGGGUGCAGAGGCGGUAGCCUUCGGUGGCGCGAUAGCGCCAACGUUCUCAACUAUGACACGCAAAACGCGUGCUCCGUUGAAUGGAUUUUAUCAUG [A19U A60G C72U G143U], for which the “polymerase ribozyme fitness (log ratio)” value is not above -4.2.
For GGUUCUUCUCGAUCUAACAAAAAAGACAAAUCUGCCACAAAGCUAGAGAGCAUCUUCGGAUGCAGAGGCGGCAGCCUUCGGUGGCGCGAUAGCGCAAACGUUCUCAACUAUGACACGCAAAACGCGUGCUCCGUUGAAUGGAGUUUAUCAUG [A3U U45A C96A] the value was -3.51.
For GGAUCUUCUCGAUCUAACAAAAAAGACAAAUCUGCCACAAAGCUUGAGAGCAUCUUCGGAUGCAGAGGCGGCAGGCUGCGGUGGCGCGAUAGCGCCAACGUUCUCAACUAUGACGCGCAAAACGCGUGCUCCGUUGAAUGGAGUUUAUCAUG [C75G U78G A115G], the “polymerase ribozyme fitness (log ratio)” value is not above -4.2.
For GGAUCUUCUCGAUCUAACAAAAAAGACAAAUCUGCCACAAAGCUUAAGAGCAUCUUCGGAUGCAGAGGCGGCAGCCUUCGGCGGCGCGAUAGCGUCAACGUUCUCAACUAUGACACGCAAAACGGGUGCUCCGUUGAAUGGAGUUUAUCAUG [G46A U82C C95U C125G] the value was -1.73; for GGAUCUUCUCGAUCUAACAAAAAAGACAAAUCUGCCACAAAGCUUGAGAGCAUCUUCGGAUGCAGAGGCGGCAGUCUUCGGUGGCGCGAUGGCGCCAACGUUCUCAACUAUGACACGCAAAACGCGUGCUCCGUUGAAUGGAGUUUCUCAUG [C75U A91G A147C], -3.68; for GGAUCUUCUCGAUCUAACAAAAAAGACAUAUCUGCCACAAAGCUUGAGAGCAUCUUCGGAUGCAGAGGCGGCAGCAUUCGGUGGCGAGAUAGAGCCAACGUUCUCAACUAUGACACGCAAAACGCGUGAUCCGUUGAAUGGAGUUUAUCAUG [A29U C76A C87A C93A C129A], not above -4.2.
Regarding GGAUCUUCUCGGUCUAACAAAAAAGACAAAUCUGCCACAAAGCUUGAGAGCAUCUUCGGAUGCAGAGGAGGCAGCCUUCGGUGGCGCGAUAGCGCUAACGUUCUCAACUAUGACACGCAACACGCGGGCUCCGUUGAAUGGAGUUUUUCAUG [A12G C69A C96U A121C U127G A147U], the “polymerase ribozyme fitness (log ratio)” value is -4.02.
Next, GGAUCUUCUCGAUCUAACAAAAAAGACAAAUCUGCCACAAAGCUUGAGAGCAUCUUCGGAUGCAGAGGCGGCAGCCUUCGGUGGCGCGAUAGCGCCAACGUUCUCAACUAUGACACGCAAAACGCGUGCUCCGAUGAAUGGAGUUUAUCAUG [U134A]: -2.25; GGAUCUUCUCGAUCUAACAAAAAAGACAAAUCUGCCACAAAGCUUGAGAGCAUCUUCGGAUGCAGAGGCGGCAGCCUUCGGUGGCGCGAUAGCGCCAACGUUCUCACCUAUGACACGCAAAACGCGUGCUCCGUUGAAUGGCGUUUAUCAUG [A107C A142C]: -4.05; GGAGCUUCUCGAUCUAACAAAAAAGACAAAUCUGCCACGAAGCUUGAGAGCAUCUUCGGAUGCAGAGGCGGCAGCCUUCGGUGGCGCGAUAGCGCCAACGUUCUCAACUAUGACACGCAAAACGCGUGCUCCGUUGAAUGGGGUUUAUCAUG [U4G A39G A142G]: -3.9.
For GGAUCUUCUCGAUCUAACAGAAAAGACAAAUCUGCCACAAAGCUUGAGAGCAUCUUCGGAUGCAGAGGCGGCAGCCUUCGGUGGCGCGAUAGCGCCAACGUUCUCAACUAUGACACGCAAAACGCGUGCUCCGUUAAAUGGAGUUUAUCAUG [A20G G136A] the value was 0.27; for GGAUCUUCUCGAUCGAUCAAAAAAGACAAAUCUGCCACAAAGCUUGAGAGCAUCUUCGGAUGCAGAGGCGGCAGCCUUCGGUGGCGCGAUAGCGCCAACGUUCUCAACUAUGACACGCAAAACGCGUGCUCCGUUGAAUGGAGUUUAUCAUG [U15G A17U], -0.367.

The values above are taken from the RNAGym collection of RNA variant scans (doi:10.1073/pnas.2313332121).
